In patent US20040037830A1:

Target: IL-8 receptors on human neutrophils
Assay: 125I-IL-8 competition with unlabelled IL-8, Scatchard analysis, human neutrophils

A binding sites/cell (binding sites/cell) of 31000 was found for “human 72 amino acid IL-8 (interleukin-8), recombinant, made in E. coli (from UniProt P10145 28-99) (ligand)” in this work.
